# Measured values taken from paper PMC2719906.
# Biological target: WASP GBD (GTPase binding domain, residues 242-310) (UniProt P42768)
# Experiment: NMR titration
# EspFU R5 (five-repeat fragment), sequence (P0DJ88 80-314): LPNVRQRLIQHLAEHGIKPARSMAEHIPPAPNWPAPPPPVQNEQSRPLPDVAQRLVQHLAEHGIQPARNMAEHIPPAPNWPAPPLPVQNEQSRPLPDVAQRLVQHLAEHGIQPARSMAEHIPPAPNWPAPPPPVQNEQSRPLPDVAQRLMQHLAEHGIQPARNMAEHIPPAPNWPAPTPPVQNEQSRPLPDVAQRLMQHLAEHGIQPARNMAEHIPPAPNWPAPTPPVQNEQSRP
# WASP GBD (GTPase binding domain, residues 242-310), sequence (P42768 242-310): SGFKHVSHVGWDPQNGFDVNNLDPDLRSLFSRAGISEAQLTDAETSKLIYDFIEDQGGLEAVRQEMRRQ
substance,measurement,value
EspFU R5 (five-repeat fragment) (from UniProt P0DJ88 80-314) (domain or fragment),stoichiometry N,0.2 EspFU:GBD
